Test results taken from patent publication US6562591 (RIGEL PHARMACEUTICALS, dated 2003).

T1: FLAG-TRAF2, full length human Traf2 with N-terminal FLAG epitope tag (human, UniProt Q12933 2-501)
T1 construct: mature; also called FLAG-tagged TRAF2; TRAF2(WT)
T1 sequence: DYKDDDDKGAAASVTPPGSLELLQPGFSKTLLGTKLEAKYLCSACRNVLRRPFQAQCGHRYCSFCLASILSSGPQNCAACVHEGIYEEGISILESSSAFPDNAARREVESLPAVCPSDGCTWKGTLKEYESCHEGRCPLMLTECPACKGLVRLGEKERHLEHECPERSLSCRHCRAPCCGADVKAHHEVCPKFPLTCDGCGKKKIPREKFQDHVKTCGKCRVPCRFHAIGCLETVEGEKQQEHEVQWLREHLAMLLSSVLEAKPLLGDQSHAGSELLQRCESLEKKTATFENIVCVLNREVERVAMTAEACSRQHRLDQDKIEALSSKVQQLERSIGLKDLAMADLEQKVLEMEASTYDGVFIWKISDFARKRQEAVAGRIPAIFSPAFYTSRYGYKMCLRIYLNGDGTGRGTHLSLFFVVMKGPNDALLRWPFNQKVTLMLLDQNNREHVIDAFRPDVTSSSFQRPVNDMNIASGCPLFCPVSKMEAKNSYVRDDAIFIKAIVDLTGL


Experiments:
Assay in all cases: co-immunoprecipitation: anti-HA IP, anti-FLAG blot, Phoenix-A cell lysates
[1] = target: T2, FLAG-NCK, full length human NCK with N-terminal FLAG epitope tag (human, UniProt P16333 2-377)
T2 construct: mature; also called FLAG-tagged NCK
Description: (§1) Washed precipitates were subjected to SDS-PAGE analysis and Western blotting. Supersignal and Supersignal West Duro substrates (Piers) were used as detection systems for the Western blotting.
(§2) Interaction of Tnik with TRAF2 and NCK—To confirm the interaction of Tnik with TRAF2, N-terminal HA-tagged Tnik was transiently expressed in Phoenix-A cells and HA-Tnik was immunoprecipitated by an anti-HA antibody. The immune complexes were resolved on SDS-PAGE and immunoblotted with an anti-TRAF2 antibody. Endogenous TRAF2 specifically co-immunoprecipitated with HA-Tnik (FIG. 6, top panel). To map the interaction domain on Tnik that mediated its interaction with TRAF2, we constructed several truncated forms of HA-tagged Tnik (FIG. 7) and co-expressed them with FLAG-tagged TRAF2. Anti-HA immunoprecipitates were then blotted with an anti-FLAG antibody to detect the co-immunoprecipitated FLAG-TRAF2. […] Expression levels of the transfected proteins were controlled by immunoblotting cell lysates with anti-HA and anti-FLAG antibodies (FIG. 8, middle and bottom panels).
(§3) We then mapped the domains on TRAF2 that mediated the interaction with Tnik. FLAG-tagged TRAF2 mutants (FIG. 9) were co-expressed with HA-Tnik and the lysates were subjected to anti-HA immunoprecipitation. The immune complexes were then blotted with an anti-FLAG antibody.

[2] = target: T1, FLAG-TRAF2, full length human Traf2 …
Description: as §1, §2, §3

[3] = target: T3, HA-Tnik(WT), full length human Tnik isoform 1 with N-terminal HA epitope tag (human, UniProt Q9UKE5 1-1360)
T3 construct: Expressed transiently in Phoenix-A cells and immunoprecipitated from lysate; also called Tnik1
Description: as §1, §2, §3

Row | Binder | binding result [1] | binding result [2] | binding result [3]
1 | HA-Tnik(N1), Tnik mutant with only the kinase domain (enzyme) AYPYDVPDYAMASDSPARSLDEIDLSALRDPAGIFELVELVGNGTYGQVYKGRHVKTGQLAAIKVMDVTGDEEEEIKQEINMLKKYSHHRNIATYYGAFIKKNPPGMDDQLWLVMEFCGAGSVTDLIKNTKGNTLKEEWIAYICREILRGLSHLHQHKVIHRDIKGQNVLLTENAEVKLVDFGVSAQLDRTVGRRNTFIGTPYWMAPEVIACDENPDATYDFKSDLWSLGITAIEMAEGAPPLCDMHPMRALFLIPRNPAPRLKSKKWSKKFQSFIESCLVKNHSQRPATEQLMKHPFIRDQPNERQVRIQLKDH | no binding | no binding | –
2 | FLAG-TRAF2(1-272) (other, human) DYKDDDDKGMAAASVTPPGSLELLQPGFSKTLLGTKLEAKYLCSACRNVLRRPFQAQCGHRYCSFCLASILSSGPQNCAACVHEGIYEEGISILESSSAFPDNAARREVESLPAVCPSDGCTWKGTLKEYESCHEGRCPLMLTECPACKGLVRLGEKERHLEHECPERSLSCRHCRAPCCGADVKAHHEVCPKFPLTCDGCGKKKIPREKFQDHVKTCGKCRVPCRFHAIGCLETVEGEKQQEHEVQWLREHLAMLLSSVLEAKPLLGDQSHAGSELLQRC | – | – | no binding
3 | HA-Tnik(C2), GCKH domain of Tnik (other) AYPYDVPDYARKISVVNVNPTNIRPHSDTPEIRKYKKRFNSEILCAALWGVNLLVGTENGLMLLDRSGQGKVYNLINRRRFQQMDVLEGLNVLVTISGKKNKLRVYYLSWLRNRILHNDPEVEKKQGWITVGDLEGCIHYKVVKYERIKFLVIALKNAVEIYAWAPKPYHKFMAFKSFADLQHKPLLVDLTVEEGQRLKVIFGSHTGFHVIDVDSGNSYDIYIPSHIQGNITPHAIVILPKTDGMEMLVCYEDEGVYVNTYGRITKDVVLQWGEMPTSVAYIHSNQIMGWGEKAIEIRSVETGHLDGVFMHKRAQRLKFLCERNDKVFFASVRSGGSSQVFFMTLNRNSMMNW | no binding | – | –
